# Where a chain is given by its changes, count along the chain named.
# B1: IS-9A (antibody, V domains shown)
# VH: QVQLVQSGAEVKKPGESLRISCKGSGYSFTNYWISWVRQMPGKGLEWMGRIDPSDSYINYSPSFQGHATISADKSISTAYLQWGSLKASDTAMYYCARGRNYLDSRGRFDYWGQGTLVTVSS
# VL: DIVMTQSPSSLSASVGDRVTITCQASQDISNYLNWYQQKSGKAPKLLIYDASNLETGVPSRFSGSGSGTDFTFTISSLQPEDIATYYCQQYDSLGFTFGPGTKVEIR
# notes: source: ExpiCHO cells, transiently transfected, purified (rProtein A Sepharose); copies: 2 + 2
# B2: EY-6A (antibody, V domains shown)
# VH: EVQLVESGGGVVQPGRSLRLSCAASAFTFSSYDMHWVRQAPGKGLEWVAVISYDGSNKYYADSVKGRFTISRDNSKNTLYLQMNSLRAEDTAVYYCAKDGGKLWVYYFDYWGQGTTVTVSS
# VL: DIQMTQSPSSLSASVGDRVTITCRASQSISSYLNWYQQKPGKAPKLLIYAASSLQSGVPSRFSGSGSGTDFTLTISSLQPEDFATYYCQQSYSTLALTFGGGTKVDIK
# notes: also called mAb EY-6A; source: ExpiCHO cells, transiently transfected, purified (rProtein A Sepharose); copies: 2 + 2
# B3: IY-2A (antibody, V domains shown)
# VH: QVQLVEWGAGLLKPSETLSLTCAVYGGSFSGYYWSWIRQPPGKGLEWIGLINHSGSTNYNPSLKSRVTISLDTSKNQFSLKLTSVTAADTAVYYCARGLGIFGVVTLSDVWGQGTTVTVSS
# VL: NFMLTQPHSVSESPGKTVTISCTGSSGSIASNYVQWYQQRPGSAPTTVIYEDNQRPSGVPDRFSGSIDSSSNSASLTISGLRTEDEADYYCQSYDSGIWVFGGGTKLTVL
# notes: as for B1
# B4: FP-12A (antibody, V domains shown)
# VH: EVQLVESGGGVVQPGRSLRLSCAASGFTFSSYGMHWVRQAPGKGLEWVAVISYDGSNKYYADSVKGRFTISRDNSKNTLYLQMNSLRAEDTAVYYCANGFGEYYYYAMDVWGQGTTVTVSS
# VL: B3 VL with Q39R, G65A, R82K, G97S, I98N
# notes: copies: 2 + 2
# Molecular target: T1, SARS-CoV-2 RBD (wild type), ELISA antigen (SARS-CoV-2, UniProt P0DTC2)
# Assay: ELISA
# Settings: both partners purified
row,Binder,OD in ELISA at 1 µg/ml
1,B1,1.88 OD
2,B2,1.81 OD
3,B3,1.87 OD
4,B4,1.79 OD

# Molecular target: SARS-CoV spike, ELISA antigen (SARS-CoV, strain not named (reference …, UniProt P59594))
# Assay: ELISA
# Settings: both partners purified
row,Binder,OD in ELISA at 1 µg/ml
1,B1,1.83 OD
2,B2,1.67 OD
3,B3,1.78 OD

# Molecular target: SARS-CoV-2 spike (S) protein, ELISA antigen (SARS-CoV-2, Wuhan-Hu-1 (assumed), UniProt P0DTC2)
# Assay: ELISA
# Settings: both partners purified
row,Binder,OD in ELISA at 1 µg/ml
1,B1,1.78 OD
2,B2,1.75 OD
3,B3,1.8 OD
4,B4,1.76 OD

# Molecular target: SARS-CoV RBD-His8-SpyTag003 (SARS-CoV (GenBank ON131087, strain not …, UniProt P59594))
# Assay: ELISA
# Settings: both partners purified
row,Binder,binding result
1,B4,no binding (tested: 50 nM)

# Molecular target: T2, Yunnan2011 (Yun11)-CoV RBD-His8-SpyTag003 (Bat coronavirus Cp/Yunnan2011)
# T2 construct: clade 2
# Assay: ELISA
# Settings: both partners purified
row,Binder,binding result
1,B2,binds
2,B3,binds
3,B4,no binding (tested: 50 nM)

# Molecular target: T3, Rf1-CoV RBD-His8-SpyTag003 (Bat SARS-like coronavirus Rf1)
# T3 construct: clade 2
# Assay: ELISA
# Settings: both partners purified
row,Binder,binding result
1,B2,binds
2,B3,binds
3,B4,no binding (tested: 50 nM)

# Molecular target: RmYN02-CoV RBD-His8-SpyTag003 (Bat coronavirus RmYN02)
# Assay: ELISA
# Settings: both partners purified
row,Binder,binding result
1,B2,binds
2,B3,binds
3,B4,no binding (tested: 50 nM)

# Molecular target: WIV1-CoV RBD-His8-SpyTag003 (Bat SARS-like coronavirus WIV1)
# Assay: ELISA
# Settings: both partners purified
row,Binder,binding result
1,B1,binds
2,B2,binds
3,B3,binds
4,B4,no binding (tested: 50 nM)

# Molecular target: Rs4081-CoV RBD-His8-SpyTag003 (Bat SARS-like coronavirus Rs4081)
# Assay: ELISA
# Settings: both partners purified
row,Binder,binding result
1,B2,binds
2,B3,binds
3,B4,no binding (tested: 50 nM)

# Molecular target: RaTG13-CoV RBD-His8-SpyTag003 (Bat coronavirus RaTG13)
# Assay: ELISA
# Settings: both partners purified
row,Binder,binding result
1,B1,binds
2,B2,binds
3,B3,binds
4,B4,no binding (tested: 50 nM)

# Molecular target: pangolin17 (pang17)-CoV RBD-His8-SpyTag003 (pangolin17-CoV)
# Assay: ELISA
# Settings: both partners purified
row,Binder,binding result
1,B2,binds
2,B3,binds
3,B4,no binding (tested: 50 nM)

# Molecular target: SHC014-CoV RBD-His8-SpyTag003 (Bat SARS-like coronavirus RsSHC014)
# Assay: ELISA
# Settings: both partners purified
row,Binder,binding result
1,B1,binds
2,B2,binds
3,B3,binds
4,B4,no binding (tested: 50 nM)

# Molecular target: BM48-31-CoV RBD-His8-SpyTag003 (Bat coronavirus BM48-31)
# Assay: ELISA
# Settings: both partners purified
row,Binder,binding result
1,B2,binds
2,B3,binds
3,B4,no binding (tested: 50 nM)

# Molecular target: T1, SARS-CoV-2 RBD (wild type), ELISA …
# Assay: cell-based or functional assay
# Settings: not given
row,Binder,IC50 of neutralisation of SARS-CoV-2 (potency of IS-9A)
1,B1,0.03 µg/mL

# Reference: paper PMC9852238 (Nature Communications, 2023)
